The record followed here is US7202050.

This series has as its target T1, TMR-Asp-Glu-Ser-Glu-Glu-Glu-Asp-Lys(Nε-Flsn)-COOH reporter peptide (casein kinase II substrate peptide), unphosphorylated (not fully specified).
T1 chain: DESEEEDK

B1: Human casein kinase II (CKII) (protein)
chain: MSGPVPSRARVYTDVNTHRPREYWDYESHVVEWGNQDDYQLVRKLGRGKYSEVFEAINITNNEKVVVKILKPVKKKKIKREIKILENLRGGPNIITLADIVKDPVSRTPALVFEHVNNTDFKQLYQTLTDYDIRFYMYEILKALDYCHSMGIMHRDVKPHNVMIDHEHRKLRLIDWGLAEFYHPGQEYNVRVASRYFKGPELLVDYQMYDYSLDMWSLGCMLASMIFRKEPFFHGHDNYDQLVRIAKVLGTEDLYDYIDKYNIELDPRFNDILGRHSRKRWERFVHSENQHLVSPEALDFLDKLLRYDHQSRLTAREAMEHPYFYTVVKDQARMGSSSMPGGSTPVSSANMMSGISSVPTPSPLGPLAGSPVIAAANPLGMPVPAAAGAQQ
For B1, the “phosphorylation of the peptide by CKII, HPLC analysis” value is on record as “Phosphorylation of the peptide by CKII was confirmed by incubation of the peptide with kinase”.
